Data as given in the supplement of paper PMC9112550, “Optimization of the antimicrobial peptide Bac7 by deep mutational scanning” (BMC Biology, 2022).

system: Escherichia coli TOP10; experiment: shrunken log2 fold change of peptide-encoding DNA abundance (4.5 h post-induction vs induction); higher = less antimicrobial activity (less host growth inhibition); details: time post-induction: 4.5 h; library: site-saturation at positions 5, 18, 19, 20
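Also: peptides expressed intracellularly from a pBAD plasmid library in pooled LB shake-flask culture, induced with 0.3% L-arabinose, DNA abundance read by NGS, three biological replicates, DESeq2 with apeglm shrinkage.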

Sequence | shrunken log2 fold change
RRIRKRPPRLPRPRPRPVVVPRP | 0.212
RRIRQRPPRLPRPRPRPGVIPRP | 0.0679
RRIRARPPRLPRPRPRPCQCPRP | 0.0726
RRIRDRPPRLPRPRPRPQYRPRP | -0.0135
RRIRHRPPRLPRPRPRPDSMPRP | 0.0959
RRIRGRPPRLPRPRPRPKYTPRP | 0.101
RRIRQRPPRLPRPRPRPIHWPRP | -0.198
RRIRPRPPRLPRPRPRPPVTPRP | 0.147
RRIRDRPPRLPRPRPRPEPGPRP | 0.707
RRIRERPPRLPRPRPRPICTPRP | -0.249
RRIRCRPPRLPRPRPRPQRCPRP | -0.0802
RRIRVRPPRLPRPRPRPGECPRP | -0.145
RRIRDRPPRLPRPRPRPQPIPRP | 0.152
RRIRYRPPRLPRPRPRPYNFPRP | -0.246
RRIRDRPPRLPRPRPRPNIEPRP | -0.00164
RRIRLRPPRLPRPRPRPLTAPRP | -0.0325
RRIRHRPPRLPRPRPRPFCLPRP | -0.262
RRIRSRPPRLPRPRPRPEAGPRP | 1.34
RRIRDRPPRLPRPRPRPITFPRP | -0.822
RRIRERPPRLPRPRPRPMHHPRP | -0.394
RRIRQRPPRLPRPRPRPKLIPRP | -0.0954
RRIRPRPPRLPRPRPRPRFSPRP | -0.0121
RRIRPRPPRLPRPRPRPWPAPRP | 0.0589
RRIRFRPPRLPRPRPRPLQWPRP | -0.0201
RRIRCRPPRLPRPRPRPLRRPRP | 0.519

Sequence | shrunken log2 fold change
RRIRLRPPRLPRPRPRPVDYPRP | -0.434
RRIRFRPPRLPRPRPRPLMIPRP | -0.266
RRIRPRPPRLPRPRPRPKRSPRP | 0.0941
RRIRARPPRLPRPRPRPLSCPRP | 0.214
RRIRERPPRLPRPRPRPMCLPRP | -0.38
RRIRIRPPRLPRPRPRPELAPRP | 0.254
RRIRTRPPRLPRPRPRPNHVPRP | -0.0538
RRIRNRPPRLPRPRPRPCKNPRP | -0.0376
RRIRRRPPRLPRPRPRPDHIPRP | 0.0664
RRIRMRPPRLPRPRPRPRDPPRP | 0.705
RRIRFRPPRLPRPRPRPYQLPRP | -0.573
RRIRLRPPRLPRPRPRPHKWPRP | -0.0343
RRIRARPPRLPRPRPRPCTKPRP | 0.143
RRIRHRPPRLPRPRPRPPRRPRP | 0.452
RRIRWRPPRLPRPRPRPNWDPRP | -0.0442
RRIRYRPPRLPRPRPRPRPQPRP | 0.438
RRIRKRPPRLPRPRPRPSPKPRP | 0.057
RRIRARPPRLPRPRPRPNNQPRP | -0.309
RRIRSRPPRLPRPRPRPIEPPRP | 0.0268
RRIRVRPPRLPRPRPRPLKQPRP | -0.0521
RRIRWRPPRLPRPRPRPKRGPRP | 0.239
RRIRGRPPRLPRPRPRPQFNPRP | -0.163
RRIRKRPPRLPRPRPRPALDPRP | 0.772
RRIRMRPPRLPRPRPRPKSMPRP | 0.0732
RRIRTRPPRLPRPRPRPQFKPRP | 2.23

Sequence | shrunken log2 fold change
RRIRLRPPRLPRPRPRPSVNPRP | -0.822
RRIRPRPPRLPRPRPRPHIAPRP | -0.392
RRIRVRPPRLPRPRPRPQADPRP | 0.0259
RRIRCRPPRLPRPRPRPMWDPRP | -0.317
RRIRLRPPRLPRPRPRPWFNPRP | -0.388
RRIRGRPPRLPRPRPRPMPYPRP | 0.0877
RRIRKRPPRLPRPRPRPATAPRP | 0.18
RRIRDRPPRLPRPRPRPGKIPRP | -0.176
RRIRVRPPRLPRPRPRPSSLPRP | -0.334
RRIRLRPPRLPRPRPRPKADPRP | -0.051
RRIRARPPRLPRPRPRPWPAPRP | 0.17
RRIRCRPPRLPRPRPRPKQHPRP | 0.189
RRIRPRPPRLPRPRPRPACDPRP | 0.00904
RRIRERPPRLPRPRPRPDTWPRP | -0.295
RRIRCRPPRLPRPRPRPLSEPRP | -0.219
RRIRTRPPRLPRPRPRPFHAPRP | -0.0296
RRIRCRPPRLPRPRPRPMSYPRP | -0.23
RRIRLRPPRLPRPRPRPPIRPRP | 0.296
RRIRYRPPRLPRPRPRPEINPRP | 0.0373
RRIRNRPPRLPRPRPRPQGGPRP | -0.28
RRIRFRPPRLPRPRPRPIWAPRP | 0.0219
RRIRARPPRLPRPRPRPEITPRP | 0.784
RRIRIRPPRLPRPRPRPIFLPRP | -0.416
RRIRFRPPRLPRPRPRPCEYPRP | -0.000476
RRIRRRPPRLPRPRPRPDNQPRP | 0.0853
